Among the data in the RNAGym collection of RNA variant scans (doi:10.7554/elife.80360) are self-cleavage values, retold here.

To fix the notation:
B1: HDV Ribozyme (parent)
chain: GGCCGGCAUGGUCCCAGCCUCCUCGCUGGCGCCGGCUGGGCAACAUUCCGAGGGGACCGUCCCCUCGGUAAUGGCGAAUGGGACCCA

In this series the parent is B1. The series is described as follows: self-cleavage, relative activity (ratio to wild type); higher = more cleavage; co-transcriptional.
Consider C36U C64A, for which the self-cleavage came to 0.482. As for C36U C63A, the figure is 0.534; as for C36U C63G, 0.493; as for C36U C58A, 0.964. In the case of C36U C58U, the self-cleavage stood at 0.866. Turning to G35U G76A, the self-cleavage came out at 0.404.

In the case of G35U C64G, the self-cleavage amounted to 0.403. G35U C64A: the self-cleavage worked out at 0.351. Regarding C36G G55U, the self-cleavage was 0.032. On to C36G G55C, for which the self-cleavage is 0.0314. With C36A U46A, the self-cleavage was found to be 0.244.

In the case of C36G C57A, the self-cleavage is 0.177. C36G C57G: the self-cleavage was 0.162.

On to C36U A51C, for which the self-cleavage worked out at 0.665. Next, C36U A51U: 0.743; C36G A83U: 0.113. Consider C36G C75U, for which the self-cleavage turned out to be 0.233. Next, C36G C75A: 0.151; C36G C75G: 0.0773. For C36G C84U, the self-cleavage amounted to 0.0755. Regarding C36G C84A, the self-cleavage is 0.0773.

In the case of C36G C84G, the self-cleavage amounted to 0.116. As for C36A U69C, the figure is 0.0426; as for C36A U69A, 0.0755. Take G35C U60C: the self-cleavage was 0.237. Regarding C36A U60A, the self-cleavage turned out to be 0.198.

Regarding C36A U60C, the self-cleavage amounted to 0.166. With C36U C62G, the self-cleavage amounted to 0.222. With C36U C62U, the self-cleavage stood at 0.911. Next, C36G G80U: 0.0507; C36G G80C: 0.108. As for C36G G80A, the figure is 0.0382.

Turning to G35U A45G, the self-cleavage came out at 0.365. For C36G A87G, the self-cleavage is 0.138.

As for C36G A87U, the self-cleavage was determined as 0.153. Regarding G35C U65A, the self-cleavage is 0.233. As for G35C U65G, the figure is 0.314. As to G35C U65C, the self-cleavage was found to be 0.219. With C36A U37G, the self-cleavage was 0.256. Turning to C36A U37C, the self-cleavage amounted to 0.489. With C36A U37A, the self-cleavage is 0.0831.

In the case of C36A C84A, the self-cleavage turned out to be 0.192. As for G35U G52A, the figure is 0.483; as for G35U G52U, 0.459. Consider C36G C48U, for which the self-cleavage came out at 0.231. As to C36G C48A, the self-cleavage was 0.272. Take G35U G80C: the self-cleavage turned out to be 0.0567. Next, G35U G80A: 0.101. C36A C64G: the self-cleavage was 0.0652. For the variant C36A C64A, the self-cleavage was determined as 0.0405. C36U U69A: the self-cleavage is 0.627.

As to C36U U65G, the self-cleavage came to 0.582. For C36U U65C, the self-cleavage amounted to 0.712. With C36U U65A, the self-cleavage is 0.665. In the case of C36U C66A, the self-cleavage was 0.712. In the case of C36U C66U, the self-cleavage stood at 0.741. Take C36G U46A: the self-cleavage is 0.415. Next, G35U G39U: 0.0941; C36U G53U: 0.852; C36A A83U: 0.0219. With G35U G54U, the self-cleavage came to 0.448. Next, G35U G55U: 0.508; G35U A71U: 0.178. Consider G35U A71G, for which the self-cleavage was 0.308.

As for G35U A71C, the self-cleavage amounted to 0.237. Consider C36A A43C, for which the self-cleavage amounted to 0.095. As for C36A A43U, the figure is 0.198; as for C36G G81U, 0.114. Consider C36G G81A, for which the self-cleavage was 0.0545. For the variant G35U C84U, the self-cleavage was found to be 0.343.

Turning to G35U C84G, the self-cleavage was 0.185. As for G35U A77U, the figure is 0.175; as for G35U A78G, 0.0723; as for C36G G82C, 0.141. G35U U69C: the self-cleavage was found to be 0.253.

Take G35U U69G: the self-cleavage was determined as 0.302. As for C36U A43C, the self-cleavage is 0. Turning to C36U A43U, the self-cleavage is 0.095.

Turning to C36G G50C, the self-cleavage was 0.0437. Turning to C36G G50A, the self-cleavage was found to be 0.109. Consider G35U C58U, for which the self-cleavage turned out to be 0.249. Regarding G35U C58A, the self-cleavage came to 0.554.

As to C36G C63U, the self-cleavage came to 0.213. For C36U C85G, the self-cleavage was found to be 0.799. On to C36U C85U, for which the self-cleavage came out at 0.88.

Turning to C36U C85A, the self-cleavage was found to be 0.732. For C36U U60G, the self-cleavage amounted to 0.508. As to C36U U60C, the self-cleavage is 0.959. Turning to C36U U60A, the self-cleavage came to 0.727. As for C36U G73C, the figure is 0.161; as for G35U U46C, 0.0415. On to C36A G76U, for which the self-cleavage was 0.119. As to C36G C64A, the self-cleavage is 0.259.

Consider G35U G82C, for which the self-cleavage was 0.161.

As to G35U G82U, the self-cleavage is 0.162. Next, C36G G52U: 0.14. For the variant C36G C41G, the self-cleavage turned out to be 0.151. Take C36U G59U: the self-cleavage is 0.806. In the case of C36A G80A, the self-cleavage came out at 0.12.

On to C36G A51C, for which the self-cleavage is 0.0665. Take C36G A51U: the self-cleavage is 0.0519. In the case of C36A C66G, the self-cleavage worked out at 0.177.

As to C36A C66U, the self-cleavage came out at 0.134. Next, U37A A42G: 0.0665; C36A G74C: 0.0997. For the variant C36A G74U, the self-cleavage was 0.14. In the case of C36A G74A, the self-cleavage was 0. Next, C36G A70C: 0; G35U G50A: 0.472. Turning to G35U G50U, the self-cleavage turned out to be 0.426. As to G35U G50C, the self-cleavage is 0.443. With C36U G74U, the self-cleavage was 0.191. C36U G81A: the self-cleavage stood at 0.24. Consider G35U G68A, for which the self-cleavage turned out to be 0.351. Take C36G C86G: the self-cleavage is 0.119. As for C36G C86A, the figure is 0.181; as for C36U U79G, 0.325. As for C36A A70C, the self-cleavage was found to be 0.128. In the case of C36A C85G, the self-cleavage is 0.18. Consider C36A C85A, for which the self-cleavage was determined as 0.457. On to C36A A56G, for which the self-cleavage came out at 0.145. For the variant C36G A42U, the self-cleavage is 0.113.

Turning to C36G A42G, the self-cleavage came out at 0.147. On to C36G A42C, for which the self-cleavage amounted to 0.0811. Regarding C36U G76U, the self-cleavage was 1.05. With C36U G76C, the self-cleavage came to 0.909. Next, C36G U79A: 0.095. For the variant C36G U79C, the self-cleavage stood at 0.154. Consider C36U C48U, for which the self-cleavage was 0.746. For G35U U72G, the self-cleavage came to 0.151.

As to G35U C62A, the self-cleavage was 0.261. G35U C62U: the self-cleavage was 0.486.

In the case of C36U A83C, the self-cleavage was 0.185. As to C36U A83G, the self-cleavage was found to be 0.56. G35U C49A: the self-cleavage is 0.499.

Regarding G35U C63A, the self-cleavage is 0.389. Turning to C36U U47C, the self-cleavage was 0.467. For C36U U47G, the self-cleavage stood at 0.665.

As for C36G G54U, the self-cleavage was found to be 0.166. C36A A78G: the self-cleavage worked out at 0.0652.

Consider C36A A78U, for which the self-cleavage was 0. Turning to C36A A78C, the self-cleavage worked out at 0.155. Regarding C36A G52C, the self-cleavage amounted to 0.138.

Consider C36A G52A, for which the self-cleavage was determined as 0.158. As for C36A G52U, the figure is 0.14; as for C36U U37C, 0.867. As to C36G U60C, the self-cleavage was 0.237.

Regarding C36G U60A, the self-cleavage worked out at 0.0405. As for C36G G40U, the self-cleavage was 0.108.

C36G G40A: the self-cleavage worked out at 0.157.

In the case of C36G G40C, the self-cleavage is 0.185. In the case of C36U C49A, the self-cleavage was 0.795. G35U C36A: the self-cleavage was 0.0831.

Consider G35U C36U, for which the self-cleavage stood at 0.101.

Turning to G35U C48A, the self-cleavage was determined as 0.49. As for G35U C48G, the self-cleavage worked out at 0.312. As for C36A G54C, the figure is 0.241. With C36U C75G, the self-cleavage stood at 0.0959. Regarding C36A G82C, the self-cleavage amounted to 0.112. As for G35U G59A, the figure is 0.415; as for G35U G59C, 0.7; as for G35U U37A, 0.155.

As for G35U U37G, the self-cleavage worked out at 0.095. As to G35U U37C, the self-cleavage is 0.428. On to C36G C44G, for which the self-cleavage amounted to 0. With C36G A78C, the self-cleavage stood at 0.161. Consider G35U C85U, for which the self-cleavage turned out to be 0.623.
